# Laboratory results: patent publication US20170192009A1
# Tests used:
# [1] = target: GFP-hIL6 fusion protein (N-terminal 6x His-tag, mGFP, gs linker, human interleukin-6), purified (human); experiment: flow cytometry of permeabilized IT cells treated with GFP-IL6
# [2] = target: GFP-hIL6 fusion protein (N-terminal 6x His-tag, mGFP, gs linker, human interleukin-6), purified (human); experiment: flow cytometry of permeabilized E. coli IT cells displaying the binder-mRFP-CBD on inclusion bodies, treated with GFP-IL6; GFP channel
# sfGFP = experiment: flow cytometry of permeabilized IT cells, treated with sfGFP; GFP channel [panel sfGFP]
# [3] = target: GFP-hIL6 fusion protein (N-terminal 6x His-tag, mGFP, gs linker, human interleukin-6), purified (human); experiment: flow cytometry of permeabilized IT cells, treated with mGFP-IL6; GFP channel [panel IL-6]
GFP fluorescence [1],GFP fluorescence value [2],Substance,GFP fluorescence value (sfGFP),GFP fluorescence value [3]
10,17,"InVLR5c-mRFP-CBD fusion protein (In-VLR5c repebody fused to mRFP and family II CBD, displayed on inclusion bodies in permeabilized E. coli IT cells) (designed binder)",–,–
–,–,negative control (f),15.2,26.2
